The results in this text go back to patent publication US20230192820A1 (published 2023).

This assay concerns the target Wild type. In words: ELISA. For orientation: ELISA stands for enzyme-linked immunosorbent assay.

B1: Mab362 (antibody, V domains shown)
VH: QVQLVESGGGVVQPGRSLRLSCAASGFSFSSYGMHWVRQAPGKGLEWVAVIWYDGSDKYYADSVKGRFTISRDNSKNTLYLQLNSLRAEDTAIYYCARERYFDWIFDFWGQGTLVTVSS
VL: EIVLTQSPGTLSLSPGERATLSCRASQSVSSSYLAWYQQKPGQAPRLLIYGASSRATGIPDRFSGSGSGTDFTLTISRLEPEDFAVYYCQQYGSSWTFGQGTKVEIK
The EC50 is the concentration at which the effect is half-maximal. Take B1: the EC50 stood at 0.64 mg/L.
